What follows are sequences tested on Escherichia coli TOP10 (assay: shrunken log2 fold change of peptide-encoding DNA abundance (4.5 h post-induction vs induction); higher = less antimicrobial activity (less host growth inhibition)). Conditions: time post-induction: 4.5 h; library: site-saturation at positions 5, 18, 19, 20.
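Also: peptides expressed intracellularly from a pBAD plasmid library in pooled LB shake-flask culture, induced with 0.3% L-arabinose, DNA abundance read by NGS, three biological replicates, DESeq2 with apeglm shrinkage.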

Row | Sequence | shrunken log2 fold change
1 | RRIRMRPPRLPRPRPRPLWFPRP | -0.147
2 | RRIRRRPPRLPRPRPRPQAFPRP | 0.0653
3 | RRIRPRPPRLPRPRPRPKNPPRP | 0.0941
4 | RRIRTRPPRLPRPRPRPRGLPRP | 0.62
5 | RRIRARPPRLPRPRPRPWMGPRP | 0.0382
6 | RRIRPRPPRLPRPRPRPQCIPRP | -0.182
7 | RRIRMRPPRLPRPRPRPEENPRP | 3.95
8 | RRIRKRPPRLPRPRPRPMWHPRP | -0.183
9 | RRIRDRPPRLPRPRPRPQMDPRP | -0.0397
10 | RRIRGRPPRLPRPRPRPKMRPRP | 1.33
11 | RRIRSRPPRLPRPRPRPDECPRP | 0.0932
12 | RRIRARPPRLPRPRPRPVPVPRP | 0.423
13 | RRIRTRPPRLPRPRPRPKVWPRP | 0.325
14 | RRIRWRPPRLPRPRPRPECVPRP | 1.26
15 | RRIRRRPPRLPRPRPRPGEFPRP | -0.0272
16 | RRIRTRPPRLPRPRPRPRYMPRP | -0.62
17 | RRIRVRPPRLPRPRPRPDFRPRP | 0.00256
18 | RRIRERPPRLPRPRPRPARRPRP | 0.539
19 | RRIRERPPRLPRPRPRPEADPRP | 0.0032
20 | RRIRWRPPRLPRPRPRPMRDPRP | 0.814
21 | RRIRYRPPRLPRPRPRPNGTPRP | -0.424
22 | RRIRVRPPRLPRPRPRPRSHPRP | 0.0021
23 | RRIRTRPPRLPRPRPRPWFAPRP | 0.0386
24 | RRIRYRPPRLPRPRPRPQLDPRP | -0.555
25 | RRIRHRPPRLPRPRPRPSGMPRP | 0.0613

Row | Sequence | shrunken log2 fold change
26 | RRIRDRPPRLPRPRPRPRVHPRP | -0.0969
27 | RRIRIRPPRLPRPRPRPDEMPRP | -0.15
28 | RRIRYRPPRLPRPRPRPGSLPRP | -0.0848
29 | RRIRCRPPRLPRPRPRPLSGPRP | -0.0515
30 | RRIRMRPPRLPRPRPRPRQLPRP | 0.691
31 | RRIRCRPPRLPRPRPRPPMGPRP | 0.155
32 | RRIRHRPPRLPRPRPRPHNLPRP | 0.0201
33 | RRIRQRPPRLPRPRPRPVFGPRP | 0.13
34 | RRIRWRPPRLPRPRPRPMGWPRP | 0.299
35 | RRIRNRPPRLPRPRPRPSIPPRP | -0.134
36 | RRIRFRPPRLPRPRPRPANQPRP | -0.165
37 | RRIRERPPRLPRPRPRPMARPRP | 0.116
38 | RRIRHRPPRLPRPRPRPSHWPRP | -0.288
39 | RRIRSRPPRLPRPRPRPDMSPRP | -0.0189
40 | RRIRGRPPRLPRPRPRPERRPRP | 0.277
41 | RRIRRRPPRLPRPRPRPHVQPRP | -0.143
42 | RRIRGRPPRLPRPRPRPAWKPRP | 0.122
43 | RRIRYRPPRLPRPRPRPGCNPRP | -0.172
44 | RRIRNRPPRLPRPRPRPMMRPRP | 0.0611
45 | RRIRMRPPRLPRPRPRPTWMPRP | 0.25
46 | RRIRIRPPRLPRPRPRPIYHPRP | -0.622
47 | RRIRDRPPRLPRPRPRPNPFPRP | -0.343
48 | RRIRSRPPRLPRPRPRPGFHPRP | 0.0792
49 | RRIRCRPPRLPRPRPRPAFYPRP | -0.146
50 | RRIRSRPPRLPRPRPRPVPEPRP | 0.563

Row | Sequence | shrunken log2 fold change
51 | RRIRHRPPRLPRPRPRPMTAPRP | -0.135
52 | RRIRRRPPRLPRPRPRPKFVPRP | -0.151
53 | RRIRERPPRLPRPRPRPYDRPRP | 0.0251
54 | RRIRERPPRLPRPRPRPTGAPRP | 0.316
55 | RRIRCRPPRLPRPRPRPEGYPRP | 0.461
56 | RRIRCRPPRLPRPRPRPGESPRP | 0.107
57 | RRIRARPPRLPRPRPRPPVDPRP | 0.545
58 | RRIRDRPPRLPRPRPRPVCPPRP | -0.153
59 | RRIRSRPPRLPRPRPRPVTIPRP | -0.373
60 | RRIRLRPPRLPRPRPRPEKCPRP | -0.0157
61 | RRIRSRPPRLPRPRPRPWHPPRP | -0.125
62 | RRIRLRPPRLPRPRPRPQGAPRP | -0.145
63 | RRIRFRPPRLPRPRPRPCCQPRP | -0.439
64 | RRIRHRPPRLPRPRPRPMRIPRP | -0.00172
65 | RRIRIRPPRLPRPRPRPLCRPRP | -0.289
66 | RRIRARPPRLPRPRPRPQFMPRP | 0.546
67 | RRIRHRPPRLPRPRPRPNDYPRP | -0.56
68 | RRIRRRPPRLPRPRPRPYGGPRP | -0.326
69 | RRIRGRPPRLPRPRPRPSSYPRP | -0.128
70 | RRIRARPPRLPRPRPRPFYIPRP | -0.309
71 | RRIRERPPRLPRPRPRPPVHPRP | -0.145
72 | RRIRLRPPRLPRPRPRPNNYPRP | -0.577
73 | RRIRARPPRLPRPRPRPGMGPRP | 0.639
74 | RRIRERPPRLPRPRPRPSGYPRP | -0.0887
75 | RRIRNRPPRLPRPRPRPHRDPRP | -0.0417

From the supplement of paper PMC9112550, “Optimization of the antimicrobial peptide Bac7 by deep mutational scanning” (BMC Biology, 2022)
